Patent US20220064224A1 (NOVOBIND LIVESTOCK THERAPEUTICS, published 2022)
Numbering of substitutions follows the chain as printed.

Target: Canine Parvovirus Type 2 (CPV2) (Canine parvovirus type 2)
Assay: cell-based or functional assay

B1: NBX0411 (VHH)
VHH: QVQLQESGGGLVQPGGSLRLSCAVSGLAFGRVAMAWYRQAPGKERELVARISSGGYTNYADSAKGRFTISRDNVKNLVYLQMNSLKFDDTAVYYCNSGWSGDYWGKGTLVTVSS
Invasion reduced by >50% at 5 µM NBX: > 50%

B2: NBX0421 (VHH)
VHH: B1 VHH with E6Q, V32Y, S53N, L77T, Q81E, D102N
Invasion reduced by >50% at 5 µM NBX: > 50%

B3: NBX0430 (VHH)
VHH: QVQLQQSGGGLVQAGGSLRLSCAASGLTFGSPAMAWYRQAPGKEREWVATISRGGSTYYADSVKGRFTISRDNAKNTSYLQMNSLKPEETAVYYCAAGLSSMRYDYWGQGTQVTVSS
Invasion reduced by >50% at 5 µM NBX: ≤ 50%

B4: NBX0426 (VHH)
VHH: QVQLQESGGGLVQPGGSLRLSCAASGIGDRPYVMAWHRQAPGKQRELVATITRDGYTNYADTVKGRFVVSRDNAQNTVYLQMNYLKPADTAVYYCRAYNAYLNLGYWGQGTQVTVST
Invasion reduced by >50% at 5 µM NBX: > 50%

B5: NBX0417 (VHH)
VHH: QVQLQESGGGLVQPGGSLRLSCAASGSIFSINVMAWYRQAPGKEREYVASITRGGGDYYANSVKGRFTISRDNAKNAVYLQMNSLKPEDTAVYECNAQISQTISGDYRNYWGQGTQVTVSS
Invasion reduced by >50% at 5 µM NBX: ≤ 50%

B6: NBX0428 (VHH)
VHH: QVQLQESGGGLVQAGGSLRLSCAASGSTSSINHIAWYRQAPGKQREWVATITSGGGSTYYTNSVKGRFTISRDNAKNTVYLQMNNLKPEDTAVYYCKANQAAGNKDYWGQGTQVTVSS
Invasion reduced by >50% at 5 µM NBX: > 50%

B7: NBX0415 (VHH)
VHH: QVQLQESGGGLVQAGGSLRLSCAASGRTFSSYAMGWFRQAPGKEREYVAAINRFGGTYYADFVKGRFTISRDNAKNTVYLQMNSLKPEDTAVYYCAASRILGLTTAREDYNYWGQGTQVTVSS
Invasion reduced by >50% at 5 µM NBX: ≤ 50%

B8: NBX0412 (VHH)
VHH: B7 VHH with A24V, G55S, T104S
Invasion reduced by >50% at 5 µM NBX: ≤ 50%

B9: NBX0429 (VHH)
VHH: B7 VHH with E6Q, R99G, T104S
Invasion reduced by >50% at 5 µM NBX: ≤ 50%

B10: NBX0431 (VHH)
VHH: B7 VHH with E6Q, A50G, T104S
Invasion reduced by >50% at 5 µM NBX: ≤ 50%

B11: NBX0414 (VHH)
VHH: QVQLQESGGGLVQAGGSLRLSCRASGRTFSSSSMGWFRQAPGKERDFVAAISWDGASTRYADSVKGRFTISRDNAKNTVYLQMNSLKPEDTAVYYCAASTMDFIVLLTKWYPYWGQGTQVTVSS
Invasion reduced by >50% at 5 µM NBX: > 50%

B12: NBX0416 (VHH)
VHH: B11 VHH with R23A, S52N, D54S, A56D, N77S
Invasion reduced by >50% at 5 µM NBX: ≤ 50%
